T1: soluble, wild-type MICA (human, UniProt Q29983 24-299)
T1 chain: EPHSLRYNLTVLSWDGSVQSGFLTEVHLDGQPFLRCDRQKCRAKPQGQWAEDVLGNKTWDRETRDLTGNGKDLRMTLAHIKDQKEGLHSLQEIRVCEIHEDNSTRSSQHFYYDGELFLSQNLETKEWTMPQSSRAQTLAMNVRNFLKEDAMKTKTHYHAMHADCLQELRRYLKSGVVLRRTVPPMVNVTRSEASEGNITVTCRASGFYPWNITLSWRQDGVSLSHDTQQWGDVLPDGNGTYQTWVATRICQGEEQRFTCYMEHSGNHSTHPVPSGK


How the values were obtained:
soluble, wild-type MICA [1] = target: T1, soluble, wild-type MICA; assay: SPR
soluble, wild-type MICA [2] = target: T1, soluble, wild-type MICA; assay: SPR; 1:1 binding model
soluble, wild-type MICA [3] = target: T1, soluble, wild-type MICA; assay: SPR; Two State Reaction model

Kd (soluble, wild-type MICA [1]) [nM]	Kd (soluble, wild-type MICA [2]) [nM]	Kd (soluble, wild-type MICA [3]) [nM]	Binder
13.8			NKG2D^scd (single-chain dimer form of NKG2D) (receptor) NQEVQIPLTESYCGPCPKNWICYKNNCYQFFDESKNWYESQASCMSQNASLLKVYSKEDQDLLKLVKSYHWMGLVHIPTNGSWQWEDGSILSPNLLTIIEMQKGDCALYASSFKGYIENCSTPNTYICMQRTVQIPLTESYCGPCPKNWICYKNNCYQFFDESKNWYESQASCMSQNASLLKVYSKEDQDLLKLVKSYHWMGLVHIPTNGSWQWEDGSILSPNLLTIIEMQKGDCALYASSFKGYIENCSTPNTYICMQRTV
4.6	4.6	9.72	NKG2D^scd7 (heptamerized single-chain NKG2D dimer, Example 2) (receptor, FITC-conjugated for flow cytometry (two fluorophores per protomer)) GSRSAGAHAGWETPEGCEQVLTGKRLMQCLPNPEDVKMALEVYKLSLEIEQLELQRDSARQSTLDKELNQEVQIPLTESYCGPCPKNWICYKNNCYQFFDESKNWYESQASCMSQNASLLKVYSKEDQDLLKLVKSYHWMGLVHIPTNGSWQWEDGSILSPNLLTIIEMQKGDCALYASSFKGYIENCSTPNTYICMQRTVQIPLTESYCGPCPKNWICYKNNCYQFFDESKNWYESQASCMSQNASLLKVYSKEDQDLLKLVKSYHWMGLVHIPTNGSWQWEDGSILSPNLLTIIEMQKGDCALYASSFKGYIENCSTPNTYICMQRTV

From patent US20180371051A1 (published 2018)
